The record followed here is patent US20210122822A1 (FORTY SEVEN, published 2021).

Changes are numbered by the printed parent chain.

Experiment [1] has as its target T1, human c-Kit-Fc fusion protein (human, UniProt P10721 26-520, limits assumed).
T1 construct: not shown: Fc part of the fusion protein
The experiment is described as follows: ELISA, coated human c-Kit-Fc, FIG. 3D, against AMG191 (members named at paragraph 118). As for the experimental part: (§1) Antigen binding activity measurement by ELISA. 96-well plates (Nunc, Roskilde, Denmark) were coated with 1 ug/ml human c-Kit-Fc fusion protein in phosphate-buffered saline (PBS) for 16 hr at 4° C. After blocking for 1 hr with 0.4% BSA in PBS at room temperature, anti-c-Kit antibodies were added in 1/3 sequential dilutions, and incubated for 1 hr at room temperature. Plates were subsequently washed three times and incubated with HRP-conjugated goat anti-human kappa-specific antibody for 1 hr at room temperature. After washing, plates were developed with TMB. The reaction was stopped with 2M […], and OD was measured at 450 nm.
(In general: In an ELISA, binding on a coated surface is turned into a signal by an enzyme label.)

The target of experiment [2] is T1, human c-Kit-Fc fusion protein. The experiment is described as follows: ELISA, coated human c-Kit-Fc. As for the experimental part: as §1
The target is the same in experiment [3]. Nature of the experiment: ELISA, coated human c-Kit-Fc, FIG. 3C, against AMG191. As for the experimental part: as §1
Experiment [4] shares this target. The experiment is described as follows: ELISA, coated human c-Kit-Fc, against AMG191. As for the experimental part: as §1
Experiment [5] shares this target. Nature of the experiment: ELISA, coated human c-Kit-Fc; AMG191 is the reference. As for the experimental part:
as §1

Experiment [6] has the same target. Nature of the experiment: ELISA, coated human c-Kit-Fc, FIG. 2C (members named at paragraph 117). As for the experimental part:
as §1

For experiment [7] the target is unchanged. The experiment is described as follows: ELISA, coated human c-Kit-Fc, FIG. 2D (members named at paragraph 117). As for the experimental part: as §1

T1 sequence (P10721 26-520 limits assumed): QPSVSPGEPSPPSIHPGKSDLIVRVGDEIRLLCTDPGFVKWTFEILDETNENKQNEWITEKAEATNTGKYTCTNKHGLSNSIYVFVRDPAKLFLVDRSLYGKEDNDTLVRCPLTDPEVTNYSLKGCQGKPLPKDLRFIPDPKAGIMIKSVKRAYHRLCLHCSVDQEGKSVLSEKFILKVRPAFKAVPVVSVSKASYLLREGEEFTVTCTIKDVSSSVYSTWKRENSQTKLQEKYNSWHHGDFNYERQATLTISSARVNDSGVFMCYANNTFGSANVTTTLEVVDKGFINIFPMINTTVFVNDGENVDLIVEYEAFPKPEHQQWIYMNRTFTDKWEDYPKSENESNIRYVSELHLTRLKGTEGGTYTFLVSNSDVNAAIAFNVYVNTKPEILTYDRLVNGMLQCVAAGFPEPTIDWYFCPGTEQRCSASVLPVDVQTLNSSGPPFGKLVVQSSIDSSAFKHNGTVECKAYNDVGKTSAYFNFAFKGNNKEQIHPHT

B1: NF11 (antibody, V domains shown)
VH: EVQLLESGGGLVQPGGSLRLSCAASGFTFTSYNMHWVRQAPGKGLEWVGVIYSGNGDTSYAQKFKGRFTISADKSKNTAYLQMNSLRAEDTAVYYCARERDTRFGNWGQGTLVTVSS
VL: DIVMTQSPLSLPVTPGEPASISCRASESVDIYGQSFMHWYLQKPGQSPQLLIYLASNLESGVPDRFSGSGSGTDFTLKISRVEAEDVGVYYCQQNNEDPYTFGGGTKVEIK
With B1, in experiment [1], the binding result is recorded as “binds”.

B2: NF112 (antibody, human IgG1, V domains shown)
VH: B1 VH with K65Q
VL: B1 VL
Turning to B2, the binding result in experiment [2] was “binds”.

B3: NF12 (antibody, V domains shown)
VH: B1 VH with A61N, K65Q
VL: B1 VL
B3: the binding result in experiment [2] is on record as “binds”.

B4: NF (antibody, V domains shown)
VH: B1 VH with A61N
VL: B1 VL with Q34N
notes: also called antibody with the new frameworks (NF)
With B4, in experiment [3], the binding result was “binds”.

B5: AF11 (antibody, V domains shown)
VH: QVQLVQSGAEVKKPGASVKVSCKASGYTFTSYNMHWVRQAPGQGLEWMGVIYSGNGDTSYAQKFKGRVTITADKSTSTAYMELSSLRSEDTAVYYCARERDTRFGNWGQGTLVTVSS
VL: DIVMTQSPDSLAVSLGERATINCRASESVDIYGQSFMHWYQQKPGQPPKLLIYLASNLESGVPDRFSGSGSGTDFTLTISSLQAEDVAVYYCQQNNEDPYTFGGGTKVEIK
For the molecule B5, the binding result in experiment [4] was “binds”.

B6: HF112 (antibody, human IgG1, V domains shown)
VH: B5 VH with K65Q
VL: B1 VL
On to B6, for which the binding result in experiment [2] was “binds”.

B7: AMG191 (antibody, V domains shown)
VH: B5 VH with A61N
VL: B5 VL with Q34N
notes: Humanized form of HB-10716; constant region has an N to E mutation of position 297 (unglycosylated, silenced Fc); kappa light chain implied by the anti-human kappa detection
With B7, in experiment [5], the binding result is “binds”.

B8: AF12 (antibody, human IgG1, V domains shown)
VH: B5 VH with A61N, K65Q
VL: B5 VL
As to B8, the binding result in experiment [6] is “binds”.

B9: AF-2-1 (antibody, V domains shown)
VH: B5 VH with N55Q, A61N
VL: B5 VL
Consider B9, for which, in experiment [7], the binding result is recorded as “binds”.

B10: AF112 (antibody, human IgG1, V domains shown)
VH: B5 VH with K65Q
VL: B5 VL
In the case of B10, in experiment [6], the binding result is reported as “binds”.

B11: AF-3 (antibody, V domains shown)
VH: B5 VH with A61N, E99D
VL: B5 VL
Regarding B11, the binding result in experiment [7] is listed as “binds”.
